{
  "source": "paper PMC8716136",
  "target": "CaMKIIδC-GFP T287A (phosphoresistant) (R. norvegicus)",
  "experiment": "FRET or BRET",
  "data": [
    {"substance": "unlabeled CaM (calmodulin) (from UniProt P0DP23 1-149) (natural protein)", "values": [
      {"measurement": "donor fluorescence (FDD) after 5 uM unlabeled CaM, % of initial intensity", "result": 80, "unit": "%"}
    ]}
  ]
}
